B1: myelin basic protein (purified MBP) (other, human, UniProt P02686-5 2-171, looked up)
chain: ASQKRPSQRHGSKYLATASTMDHARHGFLPRHRDTGILDSIGRFFGGDRGAPKRGSGKDSHHPARTAHYGSLPQKSHGRTQDENPVVHFFKNIVTPRTPPPSQGKGRGLSLSRFSWGAEGQRPGFGYGGRASDYKSAHKGFKGVDAQGTLSKIFKLGGRDSRSGSPMARR
notes: also called intact MBP

Experiment [1] concerns the target B1. Briefly: dot blot: peptide immobilised on nitrocellulose, incubated with MBP, detected with mAb 384. Here is the method:
Dot Blot Analysis. […] Insulin (Sigma) was resuspended to 2 mg/ml in water at pH 2.0 and diluted to 2 μg/ml in Tris-buffered saline. 1 μg of each was immobilized onto Hybond ECL nitrocellulose membranes using a Bio-Dot microfiltration apparatus (Bio-Rad) according to the manufacturer's instructions. Each membrane was removed from the apparatus following immobilization and blocked overnight in 5% BSA and PBS at 4° C. […] The membrane was washed 3×10 min with 5% BSA, PBS, and 0.05% Tween 20 and incubated with mAb 384 (1:2000 dilution) for 1 h at room temperature. The membrane was next washed […] with PBS and 0.05% Tween 20 and incubated with horseradish peroxidase-conjugated sheep antimouse IgG (1:2000 dilution) for 1 h at room temperature. Detection and quantitation were performed as described above.

In the next experiment the target is T1, wild-type Aβ42 peptide (UniProt P05067 672-713).
T1 construct: domain: Aβ42; Free in co-immunoprecipitation; also called Aβ42WT
T1 sequence (P05067 672-713 limits assumed): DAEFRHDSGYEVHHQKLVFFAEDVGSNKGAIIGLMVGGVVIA
Briefly: SPR, Aβ peptide immobilised, MBP as analyte.

On to RGRKQCKTHPHFVIPYRCLV [APP 100-119], for which, in experiment [1], the binding result is “no binding (tested: 1 g/ml MBP (as printed in paragraph 99))”.

Regarding PEERHLSKMQQNGYENPTYK (also called AβPP-(744-763)) [APP 744-763], in experiment [1], the binding result is given as “no binding (tested: 1 g/ml MBP (as printed in paragraph 99))”.

For the molecule B1, the affinity in the experiment with wild-type Aβ42 peptide, expressed as Kd, was 43 nM.

Broadly, the Kd is the constant that tells how readily two partners part at equilibrium.

The record behind these values is US20110294740A1 (RESEARCH FOUNDATION FOR THE STATE UNIVERSITY OF NEW YORK, published 2011).
